Source: patent US20160297851A1, “BROAD SPECTRUM […]” (priority 2012, published 2016)

How the values were obtained:
[1] = target: E. coli SPase with each of the other 19 amino acids at residue 84, in mutant strains of E. coli; experiment: cell-based or functional assay
[2] = target: P. aeruginosa PAO1 SPase (LepB) P84L, in the bacteria (P. aeruginosa), Q9I5G7; experiment: cell-based or functional assay

B1: arylomycin C16 (peptide)
peptide: SAGXAY
modifications: here or on the partner: C16 fatty acyl (palmitoyl) tail on the N-terminus of N-methyl-D-Ser2; D-Ala3; N-methyl-4-hydroxyphenylglycine (MeHpg) at 5, written X; biaryl bridge between MeHpg5 and Tyr7 (macrocycle MeHpg5-Ala6-Tyr7); free C-terminal carboxyl; the filing counts the lipid tail as position 1
MIC [1]: < 16 µg/mL
MIC [2]: 8 µg/mL
